# Test results: PMC10151503, “Specific DNA binding of archaeal histones HMfA and HMfB”
# B1: Clone20L 78 bp (dsDNA)
# DNA 1: GGATCCCTGTCGGCACAGTTGAGCGATCAAAAACGCCGTAGATTATCGCAGCATCGTAACAGGATAGTGAAGAAGACT
# DNA 2: AGTCTTCTTCACTATCCTGTTACGATGCTGCGATAATCTACGGCGTTTTTGATCGCTCAACTGTGCCGACAGGGATCC
# B2: Clone20R 78 bp (dsDNA)
# DNA 1: CGGCGCAAATTCGTGACCAGTTGCATCAGCTGCGTGCGTAGAACGCTTTAATTGATAATCAAAGGCCGCAGAGAGCTC
# DNA 2: GAGCTCTCTGCGGCCTTTGATTATCAATTAAAGCGTTCTACGCACGCAGCTGATGCAACTGGTCACGAATTTGCGCCG
# B3: Clone20 78 bp (dsDNA)
# DNA 1: GGATCCCTGTCGGCACAGTTGAGCGATCAAAAACGCCGTAGAACGCTTTAATTGATAATCAAAGGCCGCAGAGAGCTC
# DNA 2: GAGCTCTCTGCGGCCTTTGATTATCAATTAAAGCGTTCTACGGCGTTTTTGATCGCTCAACTGTGCCGACAGGGATCC
# B4: Nonspecific 78 bp (dsDNA)
# DNA 1: CGGCGCAAATTCGTGACCAGTTGCATCAGCTGCGTGAGCTGTTTATCGCAGCATCGTAACAGGATAGTGAAGAAGACT
# DNA 2: AGTCTTCTTCACTATCCTGTTACGATGCTGCGATAAACAGCTCACGCAGCTGATGCAACTGGTCACGAATTTGCGCCG
# Key:
# HMfA [1] = target: T1, HMfA (Methanothermus fervidus, UniProt P48781 1-69); test: MST; Hill h 1.23 ± 0.16; MST: 50 mM Tris-HCl pH 8, 75 mM KCl, 20 nM DNA (40 nM diluted 1:1), 5 min at room temperature (0.2% Tween20 where noted); TPM: 50 mM Tris-HCl pH 7, 75 mM KCl; settings: protein: recombinant; chain copies: 2; label: 5' Cy5 top strand; blunt
# HMfB [2] = target: T2, HMfB (Methanothermus fervidus, UniProt P19267 1-69); test: MST; second (nonspecific) step; Hill h 1.30 ± 0.38; MST: 50 mM Tris-HCl pH 8, 75 mM KCl, 20 nM DNA (40 nM diluted 1:1), 5 min at room temperature (0.2% Tween20 where noted); TPM: 50 mM Tris-HCl pH 7, 75 mM KCl; settings: protein: recombinant; chain copies: 2; label: 5' Cy5 top strand; blunt
# HMfB [3] = target: T2, HMfB; test: MST; first (specific) step; Hill h 7.45 ± 3.5; MST: 50 mM Tris-HCl pH 8, 75 mM KCl, 20 nM DNA (40 nM diluted 1:1), 5 min at room temperature (0.2% Tween20 where noted); TPM: 50 mM Tris-HCl pH 7, 75 mM KCl; settings: protein: recombinant; chain copies: 2; label: 5' Cy5 top strand; blunt
# HMfB [4] = target: T2, HMfB; test: MST; second (nonspecific) step; Hill h 0.564 ± 0.30; error exceeds value; MST: 50 mM Tris-HCl pH 8, 75 mM KCl, 20 nM DNA (40 nM diluted 1:1), 5 min at room temperature (0.2% Tween20 where noted); TPM: 50 mM Tris-HCl pH 7, 75 mM KCl; settings: protein: recombinant; chain copies: 2; label: 5' Cy5 top strand; blunt
# HMfA [5] = target: T1, HMfA; test: MST; Hill h 0.992 ± 0.21; MST: 50 mM Tris-HCl pH 8, 75 mM KCl, 20 nM DNA (40 nM diluted 1:1), 5 min at room temperature (0.2% Tween20 where noted); TPM: 50 mM Tris-HCl pH 7, 75 mM KCl; settings: protein: recombinant; chain copies: 2; label: 5' Cy5 top strand; blunt
# HMfB D14A K30A E34A [6] = target: T3, HMfB D14A K30A E34A (Methanothermus fervidus, UniProt P19267 1-69, D14A;K30A;E34A); test: MST; 0.2% Tween20; Hill h 3.51 ± 0.77; MST: 50 mM Tris-HCl pH 8, 75 mM KCl, 20 nM DNA (40 nM diluted 1:1), 5 min at room temperature (0.2% Tween20 where noted); TPM: 50 mM Tris-HCl pH 7, 75 mM KCl; settings: protein: recombinant; chain copies: 4; label: 5' Cy5 top strand; blunt
# HMfA [7] = target: T1, HMfA; test: MST; Hill h 1.08 ± 0.21; MST: 50 mM Tris-HCl pH 8, 75 mM KCl, 20 nM DNA (40 nM diluted 1:1), 5 min at room temperature (0.2% Tween20 where noted); TPM: 50 mM Tris-HCl pH 7, 75 mM KCl; settings: protein: recombinant; chain copies: 2; label: 5' Cy5 top strand; blunt
# HMfB [8] = target: T2, HMfB; test: MST; second (nonspecific) step; Hill h 1.44 ± 0.47; MST: 50 mM Tris-HCl pH 8, 75 mM KCl, 20 nM DNA (40 nM diluted 1:1), 5 min at room temperature (0.2% Tween20 where noted); TPM: 50 mM Tris-HCl pH 7, 75 mM KCl; settings: protein: recombinant; chain copies: 2; label: 5' Cy5 top strand; blunt
# HMfB [9] = target: T2, HMfB; test: MST; first (specific) step; Hill h 1.24 ± 0.91; MST: 50 mM Tris-HCl pH 8, 75 mM KCl, 20 nM DNA (40 nM diluted 1:1), 5 min at room temperature (0.2% Tween20 where noted); TPM: 50 mM Tris-HCl pH 7, 75 mM KCl; settings: protein: recombinant; chain copies: 2; label: 5' Cy5 top strand; blunt
# HMfB [10] = target: T2, HMfB; test: MST; Hill h 3.30 ± 0.97; MST: 50 mM Tris-HCl pH 8, 75 mM KCl, 20 nM DNA (40 nM diluted 1:1), 5 min at room temperature (0.2% Tween20 where noted); TPM: 50 mM Tris-HCl pH 7, 75 mM KCl; settings: protein: recombinant; chain copies: 2; label: 5' Cy5 top strand; blunt
# HMfA [11] = target: T1, HMfA; test: MST; Hill h 1.08 ± 0.19; MST: 50 mM Tris-HCl pH 8, 75 mM KCl, 20 nM DNA (40 nM diluted 1:1), 5 min at room temperature (0.2% Tween20 where noted); TPM: 50 mM Tris-HCl pH 7, 75 mM KCl; settings: protein: recombinant; chain copies: 2; label: 5' Cy5 top strand; blunt
# HMfB D14A K30A E34A [12] = target: T3, HMfB D14A K30A E34A; test: MST; 0.2% Tween20; Hill h 4.09 ± 0.62; MST: 50 mM Tris-HCl pH 8, 75 mM KCl, 20 nM DNA (40 nM diluted 1:1), 5 min at room temperature (0.2% Tween20 where noted); TPM: 50 mM Tris-HCl pH 7, 75 mM KCl; settings: protein: recombinant; chain copies: 4; label: 5' Cy5 top strand; blunt
# T1 sequence (P48781 whole entry): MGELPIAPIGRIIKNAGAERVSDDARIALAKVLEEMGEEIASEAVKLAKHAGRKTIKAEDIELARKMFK
# T2 sequence (P19267 whole entry): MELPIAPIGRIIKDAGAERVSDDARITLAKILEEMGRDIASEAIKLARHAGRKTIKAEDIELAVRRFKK
# T3 sequence (P19267 whole entry D14A/K30A/E34A): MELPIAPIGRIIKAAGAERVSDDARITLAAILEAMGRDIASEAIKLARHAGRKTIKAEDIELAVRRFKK
binder,measurement,setting,value
B1,Kd,HMfA [1],8.09 ± 1.4 µM
same,Kd,HMfB [2],4.11 ± 1 µM
B2,Kd,HMfB [3],0.66 ± 0.047 µM
same,Kd,HMfB [4],12.3 ± 27 µM
same,Kd,HMfA [5],7.34 ± 2.8 µM
B3,Kd,HMfB D14A K30A E34A [6],19.6 ± 1.19 µM
same,Kd,HMfA [7],3.75 ± 0.1 µM
same,Kd,HMfB [8],2.99 ± 0.81 µM
same,Kd,HMfB [9],0.243 ± 0.16 µM
B4,Kd,HMfB [10],0.915 ± 0.089 µM
same,Kd,HMfA [11],16.5 ± 6.7 µM
same,Kd,HMfB D14A K30A E34A [12],22 ± 0.71 µM
